In paper PMC8902471:

Key:
Test in all cases: EMSA
Ets-1 ΔN301 MT1 = target: T1, Ets-1 ΔN301 MT1 (Mus musculus (murine), UniProt P27577 301-440, L337A;W338A)
T1 sequence: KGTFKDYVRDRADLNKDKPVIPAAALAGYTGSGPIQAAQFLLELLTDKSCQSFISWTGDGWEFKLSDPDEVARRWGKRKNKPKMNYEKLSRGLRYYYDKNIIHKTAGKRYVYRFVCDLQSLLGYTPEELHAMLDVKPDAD

Ets-1 ΔN301 MT2 = target: T2, Ets-1 ΔN301 MT2 (Mus musculus (murine), UniProt P27577 301-440, L393A;Y396A)
T2 sequence: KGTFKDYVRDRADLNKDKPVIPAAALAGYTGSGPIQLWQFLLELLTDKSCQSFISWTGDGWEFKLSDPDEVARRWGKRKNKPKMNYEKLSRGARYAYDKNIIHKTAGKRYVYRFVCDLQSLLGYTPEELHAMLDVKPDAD

Ets-1 ΔN301 MT4 = target: T3, Ets-1 ΔN301 MT4 (Mus musculus (murine), UniProt P27577 301-440, W338A)
T3 sequence: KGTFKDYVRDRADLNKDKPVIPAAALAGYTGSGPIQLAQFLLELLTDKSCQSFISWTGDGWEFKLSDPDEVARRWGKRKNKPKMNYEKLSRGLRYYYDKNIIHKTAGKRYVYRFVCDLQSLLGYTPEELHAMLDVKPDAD

Ets-1 ΔN301 MT3 = target: T4, Ets-1 ΔN301 MT3 (Mus musculus (murine), UniProt P27577 301-440, L337A)
T4 sequence: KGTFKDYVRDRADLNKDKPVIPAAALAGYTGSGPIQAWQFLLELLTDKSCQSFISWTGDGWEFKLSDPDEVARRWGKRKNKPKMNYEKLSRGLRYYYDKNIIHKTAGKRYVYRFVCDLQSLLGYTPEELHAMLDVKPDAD

Measured: binding result

B1: 27-bp high-affinity ETS site DNA (dsDNA)
DNA 1: TCGACGGCCAAGCCGGAAGTGAGTGCC
DNA 2: TCGAGGCACTCACTTCCGGCTTGGCCG
no binding: all assays above
